We go through two substances from paper PMC11336063.

The target in this assay is N-terminal domain of eIF2α (eIF2α-NTD), amino acids 2–187 (UniProt P05198).
Chain of UniProt P05198 (P05198 2-187): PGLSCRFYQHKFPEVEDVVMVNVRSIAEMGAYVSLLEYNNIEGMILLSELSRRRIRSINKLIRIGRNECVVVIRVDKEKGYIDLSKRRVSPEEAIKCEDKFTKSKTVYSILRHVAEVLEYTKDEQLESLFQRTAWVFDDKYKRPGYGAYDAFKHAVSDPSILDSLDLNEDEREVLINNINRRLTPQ

The substance “human GCN2 G1109R variant, 3xFLAG tagged (from UniProt Q9P2K8 1-1649) (enzyme)” displayed an eIF2α-S51 phosphorylation of eIF2α-NTD (1 μM) by immunopurified GCN2 variant in the in vitro kinase assay, percent of 27.2%.
“human GCN2 P1115L variant, 3xFLAG tagged (from UniProt Q9P2K8 1-1649) (enzyme)” had an eIF2α-S51 phosphorylation of eIF2α-NTD (1 μM) by immunopurified GCN2 variant in the in vitro kinase assay, percent of 12.9%.
